Results published in US20240218065A1 (SHENGHE CHINA BIOPHARMACEUTICAL, published 2024).
Like-named read-outs stand apart in the source and are kept apart here.

Legend:
[1] = target: T1, Human-NKP30-His (Kactus, cat: NKP-HM430) (human, UniProt O14931 19-138, limits assumed); experiment: ELISA: Human-NKP30-His coated, antibody titrated 3-fold from 10 µg/mL, HRP goat anti-human IgG-Fc, OD450-OD570
T1 construct: also called NKP30 protein; NKP30-his protein; not shown: His tag
T1 sequence (looked up): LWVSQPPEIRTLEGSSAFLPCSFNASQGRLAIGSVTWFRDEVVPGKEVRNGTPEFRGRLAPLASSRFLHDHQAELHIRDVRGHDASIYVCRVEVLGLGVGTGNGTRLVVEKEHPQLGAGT
Procedure: (§1) Human-NKP30-His (Kactus, cat: NKP-HM430) was diluted to […] with PBS buffer at pH 7.4, added into the 96-well ELISA plate at 100 μL per well, coated overnight at 4° C., and blocked with 1% BSA blocking solution for 1 hour. The plate was washed 3 times with PBST, and the constructed antibodies were diluted to 10 μg/mL with 0.5% BSA sample diluent as the starting concentration, and then diluted by 3-fold gradient (11 gradients in total). A negative control (blank well and IgG1 isotype control) and a positive control were set, and the positive control was a NKP30 humanized antibody (sequence shown in SEQ ID No. 28), and incubated at 37° C. for 1 h at 100 μL per well. […] The absorbance value of each well in the 96-well plate was determined by selecting the wavelength of 450 nm and the reference wavelength of 570 nm on a multifunctional enzyme marker, and the absorbance value (OD)=OD₄₅₀ₙₘ−OD₅₇₀ₙₘ. The logarithm of the concentration of the constructed antibody was taken as the abscissa, and the measured absorbance value of each well was taken as the ordinate, and the Sigmoidaldose-response (Variable Slope) method (GraphPad Prism software, GraphPad Software, San Diego, California) was selected for nonlinear regression to obtain the binding curve of the target antibody to NKP30.

Human-GPC3-His [2] = target: T2, Human-GPC3-His (human, UniProt P51654 25-559, limits assumed); experiment: ELISA: Human-GPC3-His coated at 0.5 µg/mL, antibody titrated 3-fold from 10 µg/mL, HRP goat anti-human IgG-Fc, OD450-OD570
T2 construct: Coated on the ELISA plate; also called GPC-3 protein; GPC3 protein; not shown: His tag
T2 sequence (P51654 25-559 limits assumed): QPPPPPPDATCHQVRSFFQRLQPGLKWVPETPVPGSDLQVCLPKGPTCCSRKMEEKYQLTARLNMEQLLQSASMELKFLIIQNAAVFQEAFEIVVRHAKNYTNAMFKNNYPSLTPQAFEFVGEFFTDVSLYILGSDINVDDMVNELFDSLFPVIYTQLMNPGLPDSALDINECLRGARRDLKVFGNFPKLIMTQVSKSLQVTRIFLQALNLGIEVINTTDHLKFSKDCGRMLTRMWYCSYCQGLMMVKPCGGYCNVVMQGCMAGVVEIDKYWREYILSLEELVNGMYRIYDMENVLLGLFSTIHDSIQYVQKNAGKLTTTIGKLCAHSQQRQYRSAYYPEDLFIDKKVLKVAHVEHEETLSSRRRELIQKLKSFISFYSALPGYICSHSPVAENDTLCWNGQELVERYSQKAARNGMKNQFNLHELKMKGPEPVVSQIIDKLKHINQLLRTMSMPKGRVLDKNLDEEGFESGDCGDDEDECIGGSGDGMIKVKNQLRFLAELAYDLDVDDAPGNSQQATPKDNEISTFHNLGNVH
Procedure: (§2) Human-GPC3-His was diluted to 0.5 μg/mL with PBS buffer at pH 7.4, added into the 96-well ELISA plate at 100 μL per well, coated overnight at 4° C., and blocked with 1% BSA blocking solution for 1 hour. The plate was washed 3 times with PBST, and the constructed antibody was diluted to 10 μg/mL with 0.5% BSA sample diluent as the starting concentration, and then diluted by 3-fold gradient (11 gradients in total) and incubated at 37° C. for 1 h at 100 μL per well. The plate was washed 3 times with PBST, and then HRP-labelled goat anti-human IgG-Fc was diluted with the sample diluent at 1:20000. 100 μL was added into each well, and incubated at room temperature for 1 hour. A negative control (blank well and IgG1 isotype control) and a positive control were set, and the positive control was a GPC-3 and CD3 bispecial antibody from the literature Hs, A, et al. “Engineering a bispecific antibody with a common light chain: Identification and optimization of an anti-CD3 epsilon and anti-GPC3 bispecific antibody, ERY974.” Methods 154 (2019): 10-20. (The GPC-3 and CD3 bispecial antibody sequence consists of SEQ ID No. 22, SEQ ID No. 23, and SEQ ID No. 24). The plate was washed 4 times with PBST, and 100 μL of TMB substrate was added into each well, and incubated at room temperature without light for 10 minutes. 100 μL of 1 M HCl solution was added into each well to terminate the color development reaction. The absorbance value of each well in the 96-well plate was determined by selecting the wavelength of 450 nm and the reference wavelength of 570 nm on a multifunctional enzyme marker, and the absorbance value (OD)=OD₄₅₀ₙₘ−OD₅₇₀ₙₘ. The logarithm of the concentration of the constructed antibody was taken as the abscissa, and the measured absorbance value of each well was taken as the ordinate, and the Sigmoidaldose-response (Variable Slope) method (GraphPad Prism software, GraphPad Software, San Diego, California) was selected for nonlinear regression to obtain the binding curve of the target antibody to the GPC-3 protein.

[3] = target: T1, Human-NKP30-His (Kactus, cat: NKP-HM430); experiment: ELISA: Human-NKP30-His coated, antibody titrated 3-fold from 10 µg/mL, HRP goat anti-human IgG-Fc, OD450-OD570; remark: listed apart in the source
Procedure: as §1

Human-GPC3-His [4] = target: T2, Human-GPC3-His; experiment: ELISA: Human-GPC3-His coated at 0.5 µg/mL, antibody titrated 3-fold from 10 µg/mL, HRP goat anti-human IgG-Fc, OD450-OD570; remark: listed apart in the source
Procedure: as §2

[5] = target: T1, Human-NKP30-His (Kactus, cat: NKP-HM430); experiment: ELISA: Human-NKP30-His coated, antibody titrated 3-fold from 10 µg/mL, HRP goat anti-human IgG-Fc, OD450-OD570; remark: listed apart in the source
Procedure: (§3) Human-NKP30-His (Kactus, cat: NKP-HM430) was diluted to […] with PBS buffer at pH 7.4, added into the 96-well ELISA plate at 100 μL per well, coated overnight at 4° C., and blocked with 1% BSA blocking solution for 1 hour. The plate was washed 3 times with PBST, and the constructed antibodies were diluted to 10 μg/mL with 0.5% BSA sample diluent as the starting concentration, and then diluted by 3-fold gradient (11 gradients in total). A negative control (blank well and IgG1 isotype control) and a positive control were set, and the positive control was a NKP30 humanized antibody (sequence shown in SEQ ID No. 28), and incubated at 37° C. for 1 h at 100 μL per well. The plate was washed 3 times with PBST, and then HRP-labelled goat anti-human IgG-Fc was diluted with the sample diluent at 1:20000. 100 μL was added into each well, and incubated at room temperature for 1 hour. The plate was washed 4 times with PBST, and 100 μL of TMB substrate was added into each well, and incubated at room temperature without light for 10 minutes. 100 μL of 1 M HCl solution was added into each well to terminate the color development reaction. The absorbance value of each well in the 96-well plate was determined by selecting the wavelength of 450 nm and the reference wavelength of 570 nm on a multifunctional enzyme marker, and the absorbance value (OD)=OD₄₅₀ₙₘ−OD₅₇₀ₙₘ. The logarithm of the concentration of the constructed antibody was taken as the abscissa, and the measured absorbance value of each well was taken as the ordinate, and the Sigmoidaldose-response (Variable Slope) method (GraphPad Prism software, GraphPad Software, San Diego, California) was selected for nonlinear regression to obtain the binding curve of the target antibody to NKP30.

[6] = target: T1, Human-NKP30-His (Kactus, cat: NKP-HM430); experiment: as above; remark: listed apart in the source
Procedure: as §3

| Binder | EC50 (read off the curve) [1] [µg/mL] | EC50 (read off the curve) (Human-GPC3-His [2]) [µg/mL] | EC50 (read off the curve) [3] [µg/mL] | EC50 (read off the curve) (Human-GPC3-His [4]) [µg/mL] | EC50 (read off the curve) [5] [µg/mL] | EC50 (read off the curve) [6] [µg/mL] |
| --- | --- | --- | --- | --- | --- | --- |
| GN15-H (bispecific antibody, human IgG1, kappa, Trifunctional antibody against GPC-3 and NKP30 with IL-15 and IL-15Rα sushi between CH1 and CH2; also called constructed antibody GN15-H; multifunctional antibody) light: DVVMTQSPLSLPVTPGEPASISCRSSQSLVHSNRNTYLHWYLQKPGQSPQLLIYKVSNRFSGVPDRFSGSGSGTDFTLKISRVEAEDVGVYYCSQNTHVPPTFGQGTKLEIKRTVAAPSVFIFPPSDEQLKSGTASVVCLLNNFYPREAKVQWKVDNALQSGNSQESVTEQDSKDSTYSLSSTLTLSKADYEKHKVYACEVTHQGLSSPVTKSFNRGEC heavy 1: not shown heavy 2: QVQLVQSGAEVKKPGASVKVSCKASGYTFTDYEMHWVRQAPGQGLEWMGALDPKTGDTAYSQKFKGRVTLTADKSTSTAYMELSSLTSEDTAVYYCTRFYSYTYWGQGTLVTVSSASTKGPSVFPLAPSSKSTSGGTAALGCLVKDYFPEPVTVSWNSGALTSGVHTFPAVLQSSGLYSLSSVVTVPSSSLGTQTYICNVNHKPSNTKVDKKVEPKSCDKTHTCPPCPGGGGSGGGGSPALLLLLLLRPPATRGITCPPPMSVEHADIWVKSYSLYSRERYICNSGFKRKAGTSSLTECVLNKATNVAHWTTPSLKCIRDPALVHQRPAPPSTVTTAGVTPQPESLSPSGKEGGGGSGGGGSAPELLGGPSVFLFPPKPKDTLMISRTPEVTCVVVDVSHEDPEVKFNWYVDGVEVHNAKTKPREEQYNSTYRVVSVLTVLHQDWLNGKEYKCKVSNKALPAPIEKTISKAKGQPREPQVYTLPPSRDELTKNQVSLTCLVKGFYPSDIAVEWESNGQPENNYKTTPPVLDSDGSFFLASKLTVDKSRWQQGNVFSCSVMHEALHNHYTQKSLSLSPGK | ~0.06 | ~0.01 | – | – | – | – |
| GN15-A (bispecific antibody, human IgG1, kappa, Trifunctional antibody against GPC-3 and NKP30 with IL-15 and IL-15Rα sushi between CH1 and CH2 of the two heavy chains; IgG1 knob/hole Fc; also called constructed antibody GN15-A; multifunctional antibody) light: EVQLVESGGGLVQPGGSLRLSCAASGITFSRSVMGWFRQAPGKLRELVAGITSDDNTDYADSVKGRFTISRDNSKNTLYLQMNSLRAEDTAVYYCNILPDSRLGWGQGTLVTVSSGGGGSGGGGSGGGGSDVVMTQSPLSLPVTPGEPASISCRSSQSLVHSNRNTYLHWYLQKPGQSPQLLIYKVSNRFSGVPDRFSGSGSGTDFTLKISRVEAEDVGVYYCSQNTHVPPTFGQGTKLEIKRTVAAPSVFIFPPSDEQLKSGTASVVCLLNNFYPREAKVQWKVDNALQSGNSQESVTEQDSKDSTYSLSSTLTLSKADYEKHKVYACEVTHQGLSSPVTKSFNRGEC heavy 1: not shown heavy 2: QVQLVQSGAEVKKPGASVKVSCKASGYTFTDYEMHWVRQAPGQGLEWMGALDPKTGDTAYSQKFKGRVTLTADKSTSTAYMELSSLTSEDTAVYYCTRFYSYTYWGQGTLVTVSSASTKGPSVFPLAPSSKSTSGGTAALGCLVKDYFPEPVTVSWNSGALTSGVHTFPAVLQSSGLYSLSSVVTVPSSSLGTQTYICNVNHKPSNTKVDKKVEPKSCDKTHTCPPCPGGGGSGGGGSPALLLLLLLRPPATRGITCPPPMSVEHADIWVKSYSLYSRERYICNSGFKRKAGTSSLTECVLNKATNVAHWTTPSLKCIRDPALVHQRPAPPSTVTTAGVTPQPESLSPSGKEGGGGSGGGGSAPELLGGPSVFLFPPKPKDTLMISRTPEVTCVVVDVSHEDPEVKFNWYVDGVEVHNAKTKPREEQYNSTYRVVSVLTVLHQDWLNGKEYKCKVSNKALPAPIEKTISKAKGQPREPQVYTLPPSRDELTKNQVSLTCLVKGFYPSDIAVEWESNGQPENNYKTTPPVLDSDGSFFLASKLTVDKSRWQQGNVFSCSVMHEALHNHYTQKSLSLSPGK | – | – | ~0.02 | ~0.03 | – | – |
| NKP30 humanized antibody (antibody, V domains shown, detected with anti-human IgG-Fc) VH: EVQLVESGGGLVQPGGSLRLSCAASGITFSRSVMGWFRQAPGKLRELVAGITSDDNTDYADSVKGRFTISRDNSKNTLYLQMNSLRAEDTAVYYCNILPDSRLGWGQGTLVTVSS | ~0.03 | – | ~0.03 | – | ~0.03 | ~0.03 |
